Consider 15 molecules from patent publication US20210275590A1 (LEGEND BIOTECH IRELAND, published 2021).

First the molecules themselves.
B1: AS59101 sdAb (VHH)
VHH: AVQLVESGGGLVQPGGSLRLSCAVSGIYYSINLMGWYRQAPGKPRELAASITDSGITNYADSVKGRFTISRDNAKNTVHLQMNNLKPEDTAVYYCKPMGVNWGQGIQVTVSS
notes: Camel sdAb
B2: AS49175 sdAb (VHH)
VHH: EVQLAESGGGLVQAGGSLRLSCTASGFTFDDYVMGWFRQAPGKEREGVSCISWSGDTTYYADSVKGRFTASRDNAKNTLYLQMNSLKPEDTAMYYCAADQGKCSLASAEPDDMDYWGRGTLVTVSS
notes: Camel sdAb
B3: AS50073 sdAb (VHH)
VHH: QVQLVESGGGLVQAGGSLRLSCTASGFTFDNYVMGWFRQAPGKEREGVSCIGWSGGSTYYADSVKGRFTISRDNAKNTLYLQMNSLKPEDTAMYYCAADQGKCSLGSAGADDMDYWGRGTLVTVSS
notes: Camel sdAb
B4: AS67190 sdAb (VHH)
VHH: QVQLVESGGGLVQAGGSLRLSCAASGNVFRFNIMGWYRQAPGNQRELVASIDDGGDRSYADSVEGRFTISRENGKKIMYLQMNSLKPEDTAVYYCAAGLGTYLNGRVSMATNYWGQGTQVTVSS
notes: Camel sdAb
B5: AS49264 sdAb (VHH)
VHH: EVQLVESGGGSVQAGGSLRLSCAASGYTYSINCMGWFRQAPGKEREGVAVISTGGGRTDYRDSVKGRFTISQDNAKNTVYLQMNSLKPEDTAMYYCAGKTTYPGYGCGLGRSAYNYWGQGTQVTVSS
notes: Camel sdAb
B6: AS49226 sdAb (VHH)
VHH: EVQLAESGGGSVQAGGSLRLSCAASGVTFSSTSVAWFRQAPGKEREGVAYIYTGDSSTYYADSVKGRFTIAQDNAKNAVYLQMNSLKPEDTAMYYCAADGFLLNHRSYQYWGQGTQVTVSS
notes: Camel sdAb
B7: AS49889 sdAb (VHH)
VHH: EVQLVESGGGSVQAGGSLRLSCVASGYTWCRYDMSWYRQAPGKEREFVSGFDNDGTTSYADSVKGRFTISQDNDKNTVYLQMNSLKPEDTAMYYCKEDRSRGSLDGRVCPLSYDNWGQGTQVTVSS
notes: Camel sdAb
B8: AS66873 sdAb (VHH)
VHH: QVQLVESGGGLVQPGGSLRLSCAASGSIFSITAMGWYRQAPGKQRELVATVTSGGSTKYVESVKGRFTISNDNAKNTVYLQMNSLKPEDTAVYYCWADIVARWNSDYNVYDDYWGQGTQVTVSS
notes: Camel sdAb
B9: AS67147 sdAb (VHH)
VHH: EVQLVESGGGLVQAGGSLRLSCAASGDTFSFAAMGWYRQAPGKQRELVASISFSGGESTVYANSVRGRFTISGDNAKNRVSLEMNNLKPEDTAVYYCTAKRGPYLPGPEYWGQGTQVTVSS
notes: Camel sdAb
B10: AS49814 sdAb (VHH)
VHH: QIQLVESGGGSVQAGGSLRLSCVASGYIGGHYYMGWFRQAPGKEREGVAAIDIDSDGRTRYAGSVQGRFTISQDNAKNTLHLQMSSLKPEDTGMYYCAVGVGWVPARLTPQAVSYWGKGTLVTVSS
notes: Camel sdAb
B11: AS60399 sdAb (VHH)
VHH: QVKLEESGGGLVQEGGSLRLSCAASGTIYTDSTIYWYRQAPGKQRELVASITRGGDTKYVDSVKGRFAISSDNAKNTVYLQMNSLKPEDTAVYYCNLYYRTGPSSYYRNDWGQGTQVTVSS
notes: Camel sdAb
B12: AS49873 sdAb (VHH)
VHH: EVQLVESGGGSVQAGGSLRLSCVASGYTYGINCMGWFRQAPGKEREGIAAISTGGGTTGVADSVKGRFTISQDNAKNTVYLQMNSLKPEDTAMYYCAARSTYSGYACVYSEVNGYNYRGQGTQVTVSS
notes: Camel sdAb
B13: AS49902 sdAb (VHH)
VHH: EVQLVESGGGLVQAGGSLRLSCTASGFTFDDYVMGWFRQAPGKEREGVSCISWSGDTTYYADSVKGRFTVSRDNAKNTLYLQMNSLKPEDTAMYYCAADQSLCSLAPPYNYAYWGQGTQVTVSS
notes: Camel sdAb
B14: AS50502 sdAb (VHH)
VHH: EVQLVESGGGSVQAGGSLRLSCAAPGYTYCTYDMMWYRQALGKEREFVSAVYTDGSTLYADSVKGRFTISQDNAKNTLYLQMNSLKPEDTAMYYCKTETAVTYDKPCDFWGQGTQVTVSS
notes: Camel sdAb
B15: AS58930 sdAb (VHH)
VHH: AVQLVESGGGLVQAGGSLRLSCTASGSILRTYEMGWYRQAPGSQRELVASITSDGDTNYVDSVKGRFTISRDNGKNMVYLQMNSLKPDDTAVYYCNAVILSPSYSMRTSHWGQGTQVTVSS
notes: Camel sdAb; also called AS58930C

In this test the target is T1, Recombinant human CD33 protein (human, UniProt P20138 18-259).
T1 construct: Obtained commercially; also called huCD33
T1 sequence (P20138 18-259 limits assumed): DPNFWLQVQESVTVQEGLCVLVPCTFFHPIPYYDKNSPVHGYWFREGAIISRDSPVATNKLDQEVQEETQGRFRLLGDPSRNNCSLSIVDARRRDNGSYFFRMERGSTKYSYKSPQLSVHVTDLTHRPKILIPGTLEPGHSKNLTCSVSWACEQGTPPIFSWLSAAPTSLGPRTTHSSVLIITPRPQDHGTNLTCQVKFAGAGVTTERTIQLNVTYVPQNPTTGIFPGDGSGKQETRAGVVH
The experiment in a line: SPR (BIACORE T200), crude sdAb captured via affinity tag, 100 nM human CD33 as analyte. Here is the method:
The sdAb proteins in the supernatant were analyzed for their ability to bind to CD33 ECD proteins by ELISA and CD33-overexpressing MV4-11 cell lines by FACS. All binders were sequenced and some were subjected to for further characterization including affinity ranking by surface plasmon resonance (SPR) on a BIACORE® T200 instrument. The experiments were carried out as follows: the crude sdAb proteins were captured through an affinity tag onto the sensorchip. High-concentration (100 nM) of human CD33 flowed over the sensorchip surface, and was allowed to bind the antibody fragments. On-rate (kₒₙ) and off-rate (koff) were roughly calculated based on the association and dissociation of one antigen concentration, and were used to estimate the equilibrium dissociation constant (KD).
In general terms: SPR reads the build-up and loss of mass on a sensor chip optically.
For the molecule B1, the binding result is “binds”. With B2 the entry was “binds”; with B3, “binds”; with B4, “binds”. Then B5, with “binds”; and B6, with “binds”. Consider B7, for which the binding result is listed as “binds”. Regarding B8, the binding result was “binds”. With B9, the binding result is “binds”. As to B10, the binding result is reported as “binds”. Then B11, with “binds”; and B12, with “binds”; and B13, with “binds”. With B14 the entry was “binds”; with B15, “binds”.
